Reference: the supplement of paper PMC7125110
± gives the standard error. This sample holds only a part of the variants without activity.

B1: glmS ribozyme (parent)
chain: AUAAAAGCGCCAGAACUACAGAAAUGUAGUUGACGAGGAGGAGGUUUAUCGAAUUUUCGGCGGAUGCCUCCAAA

What was measured:
Conditions in all cases: with glucosamine-6-phosphate
[1] = variants of: B1; test: self-cleavage kobs at 160 uM GlcN6P; higher = faster cleavage; RNA array
How it was run: (§1)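 Using a hybridised Cy3 probe at 37 °C, barcoded ribozyme variants transcribed in situ by E. coli RNA polymerase on sequenced MiSeq chips were monitored across tiles imaged over ~14 h. The flow contained glucosamine-6-phosphate from 40 μM to 10 mM in HEPES/KCl/Mg(OAc)2 buffer. Signals were normalised to baseline and to non-cleaving reference variants before per-tile medians were fit to one- or two-exponential decays to yield kobs. Weighted Michaelis–Menten fits across concentrations gave kcat and KM.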

[2] = variants of: B1; test: self-cleavage kobs at 640 uM GlcN6P; higher = faster cleavage; RNA array
How it was run: as §1

[3] = variants of: B1; test: self-cleavage kobs at 2500 uM GlcN6P; higher = faster cleavage; RNA array
How it was run: as §1

[4] = variants of: B1; test: self-cleavage kobs at 10000 uM GlcN6P; higher = faster cleavage; RNA array
How it was run: as §1

[5] = variants of: B1; test: self-cleavage kobs at 40 uM GlcN6P; higher = faster cleavage; RNA array
How it was run: as §1

Variant | self-cleavage kobs at 160 uM GlcN6P [1] [s⁻¹] | self-cleavage kobs at 640 uM GlcN6P [2] [s⁻¹] | self-cleavage kobs at 2500 uM GlcN6P [3] [s⁻¹] | self-cleavage kobs at 10000 uM GlcN6P [4] [s⁻¹] | self-cleavage kobs at 40 uM GlcN6P [5] [s⁻¹]
G9A A42G G44C U56G U65G | < 1e-05 | < 1e-05 |  |  | 
G7C U55A A64U | < 1e-05 | < 1e-05 | < 1e-05 |  | 
A6U G32U | < 1e-05 | < 1e-05 | < 1e-05 |  | 
A6C C8U C34A | < 1e-05 | < 1e-05 | < 1e-05 |  | 
G9A U49A | < 1e-05 | < 1e-05 | < 1e-05 |  | 
A6G A33U U57C C58A | < 1e-05 | < 1e-05 |  |  | 
G9A U65G C71G | < 1e-05 | < 1e-05 | < 1e-05 |  | 
A6C G44U | < 1e-05 | < 1e-05 | < 1e-05 | < 1e-05 | 
C8G U57C G62U | < 1e-05 | < 1e-05 | < 1e-05 | < 1e-05 | 
G7A A48U A53U U65A | < 1e-05 | < 1e-05 |  |  | 
C8G G59A C71G | < 1e-05 |  |  |  | 
U2C G9U C58U | < 1e-05 |  |  | < 1e-05 | 
A6U C11G U30G U31A A42U | < 1e-05 | < 1e-05 | < 1e-05 |  | 
C8G U30A G40U | < 1e-05 |  | < 1e-05 |  | 
C8U A15U U31G | < 1e-05 | < 1e-05 |  |  | 
G7U G62A C67A | < 1e-05 | < 1e-05 | < 1e-05 |  | 
C8A G63A | < 1e-05 |  | < 1e-05 | < 1e-05 | 
G63C A64U |  | < 1e-05 | < 1e-05 | < 1e-05 | < 1e-05
G9A A36U C68U | < 1e-05 | < 1e-05 |  |  | 
C8A U30A G37U C58A | < 1e-05 |  |  |  | 
G7U C10G A33U C34U C67G C68A | 6.38e-05 ± 2.3e-05 | 3.4e-05 ± 1.7e-05 |  |  | 
A6G G9A | < 1e-05 | < 1e-05 | < 1e-05 | < 1e-05 | 
G7A C71G | < 1e-05 |  |  |  | 
C8G C11G G43A | < 1e-05 | < 1e-05 | < 1e-05 |  | 
C8U A12C A36G G37A | < 1e-05 |  |  |  | 

Variant | self-cleavage kobs at 160 uM GlcN6P [1] [s⁻¹] | self-cleavage kobs at 640 uM GlcN6P [2] [s⁻¹] | self-cleavage kobs at 2500 uM GlcN6P [3] [s⁻¹] | self-cleavage kobs at 10000 uM GlcN6P [4] [s⁻¹] | self-cleavage kobs at 40 uM GlcN6P [5] [s⁻¹]
G7C A36G A39G C67U | < 1e-05 | < 1e-05 | < 1e-05 |  | 
G7U G60C G66U | < 1e-05 |  |  |  | 
G7A G59C | < 1e-05 | < 1e-05 |  |  | 
A6U U47A A53U | < 1e-05 |  |  |  | 
G7C U45A | < 1e-05 | < 1e-05 | < 1e-05 | < 1e-05 | 
G7C G32U A36U G40U A42U A52G | < 1e-05 | < 1e-05 | < 1e-05 |  | 
C8U G29U C34U U46G A53G | < 1e-05 | < 1e-05 | < 1e-05 |  | 
C8U G32A U45A U56C | < 1e-05 | < 1e-05 | < 1e-05 | < 1e-05 | 
G7C U45G G59A | < 1e-05 | < 1e-05 | < 1e-05 | < 1e-05 | 
A6G A33G G60C | < 1e-05 | < 1e-05 |  |  | 
G9A A36C G41U A64G C70U | < 1e-05 | < 1e-05 | < 1e-05 | < 1e-05 | 
A64C C68G C70G |  | < 1e-05 | < 1e-05 |  | < 1e-05
A6U A12G G66U | 8.08e-05 ± 2.3e-05 |  |  |  | 
G7A A12C | < 1e-05 |  |  |  | 
A6G U47C C67G | < 1e-05 | < 1e-05 |  |  | 
A6G C50U U55C | < 1e-05 | < 1e-05 | < 1e-05 | < 1e-05 | 
G9C G40A | < 1e-05 | < 1e-05 | < 1e-05 | < 1e-05 | 
G9C G40U | < 1e-05 | < 1e-05 | < 1e-05 | < 1e-05 | 
A6G U69C | < 1e-05 |  |  | 2.56e-05 ± 1e-05 | 
A6G C58U U65C | < 1e-05 |  | < 1e-05 |  | 
A6G G9U G13C C34A | < 1e-05 | < 1e-05 | < 1e-05 |  | 
G7U C71U | < 1e-05 |  |  | < 1e-05 | 
G7U G59A | < 1e-05 | < 1e-05 | < 1e-05 | < 1e-05 | 
C8U G41U C58U C68A C70G | < 1e-05 |  |  |  | 
